Reference: patent US7288251 (ABGENIX, dated 2007)

T1: rat CD40 on blood cells (rat, UniProt A6JXD6 20-289)
T1 construct: also called rat blood
T1 sequence: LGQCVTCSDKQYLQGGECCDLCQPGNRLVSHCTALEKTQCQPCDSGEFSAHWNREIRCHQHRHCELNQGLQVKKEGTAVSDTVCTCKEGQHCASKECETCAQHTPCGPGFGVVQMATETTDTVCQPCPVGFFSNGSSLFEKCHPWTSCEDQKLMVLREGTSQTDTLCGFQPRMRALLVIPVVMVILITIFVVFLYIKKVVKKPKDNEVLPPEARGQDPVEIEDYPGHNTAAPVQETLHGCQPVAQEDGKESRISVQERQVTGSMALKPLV

T2: dog CD40 on blood cells (dog, UniProt Q7YRL5 21-274)
T2 construct: whole, on cells; also called dog blood
T2 sequence (looked up): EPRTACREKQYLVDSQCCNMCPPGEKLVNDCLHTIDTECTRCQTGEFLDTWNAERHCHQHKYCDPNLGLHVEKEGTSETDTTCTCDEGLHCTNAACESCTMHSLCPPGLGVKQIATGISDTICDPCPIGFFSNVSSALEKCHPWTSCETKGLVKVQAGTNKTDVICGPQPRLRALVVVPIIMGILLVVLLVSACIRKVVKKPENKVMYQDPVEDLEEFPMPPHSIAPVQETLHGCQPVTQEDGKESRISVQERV

B1: monoclonal antibody 22.1.1 (antibody, human IgG2, kappa, V domains shown)
VH: QVQLVESGGGVVQPGRSLRLSCAASGFTFSRYGMHWVRQAPGKGLEWVAVISSDGGNKYYADSVKGRFTISRDNSKNTLYLQMNSLRAEDTAVYYCTRRGTGKTYYHYCGMDVWGQGTTVTVSS
VL: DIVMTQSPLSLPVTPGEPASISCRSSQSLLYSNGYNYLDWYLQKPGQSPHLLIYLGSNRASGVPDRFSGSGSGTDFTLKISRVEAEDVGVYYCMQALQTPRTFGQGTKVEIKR
notes: Human IgG2 kappa from hybridoma; also called hybridoma 22.1.1 (LN 15875), ATCC PTA-4550
B2: monoclonal antibody 3.1.1 (antibody, human IgG2, kappa, V domains shown)
VH: QVQLVESGGGVVQPGRSLRLSCAASGFTFSSYGMHWVRQAPGKGLEWVAVISKDGGNKYHADSVKGRFTISRDNSKNALYLQMNSLRVEDTAVYYCVRRGHQLVLGYYYYNGLDVWGQGTTVTVSS
VL: DIVLTQSPLSLPVTPGEPASISCRSSQSLLYSNGYNFLDWYLQKPGQSPQLLIYLGSNRASGVPDRFSGSGSGTDFTLKISRLEAEDVGVYYCMQALQTPRTFGQGTKVEIKR
notes: also called mAb 3.1.1; hybridoma 3.1.1 (LN 15848), ATCC PTA-3600
B3: monoclonal antibody 10.8.3 (antibody, human IgG2, kappa, V domains shown)
VH: QVQLQESGPGLVKPSETLSLTCTVSGGSISSYYWIWIRQPAGKGLEWIGRVYTSGSTNYNPSLKSRVTMSVDTSKNQFSLKLSSVTAADTAVYYCARDGLYRGYGMDVWGQGTTVTVSS
VL: DIQMTQSPSSVSASVGDRVTITCRASQPISSWLAWYQQKPGKAPKLLIYSASGLQSGVPSRFSGSGSGTDFTLTISSLQPEDFATYYCQQTDSFPLTFGGGTKVEIKR
notes: Human IgG2 kappa from hybridoma

target: T3, TNFR-2/Ig; assay: ELISA, TNFR-2/Ig coated, antibody 1 µg/ml
T3 construct: also called Tumor Necrosis Factor Receptor-2
Description: (§1) We then washed the plate with PBST (PBS+0.1% Tween-20) three times and blocked the plate with PBST+0.5% BSA at 150 µl/well. We incubated the plate at room temperature for 1 hour and then washed with PBST three times. […] We incubated the plate at room temperature for 1 hour then washed with PBST three times. […] We incubated the plate at room temperature for 1 hour and then washed with PBST three times. […] We then read the plate using a SpectraMax™ plate reader.

| CD40 specific signal over the signal for this molecule | Binder |
| --- | --- |
| ≥ 100 fold | B1 |
| ≥ 100 fold | B2 |
| ≥ 100 fold | B3 |

target: T4, human CD40 on cells (human, UniProt P25942 21-277); assay: cell-based or functional assay
T4 sequence (P25942 21-277): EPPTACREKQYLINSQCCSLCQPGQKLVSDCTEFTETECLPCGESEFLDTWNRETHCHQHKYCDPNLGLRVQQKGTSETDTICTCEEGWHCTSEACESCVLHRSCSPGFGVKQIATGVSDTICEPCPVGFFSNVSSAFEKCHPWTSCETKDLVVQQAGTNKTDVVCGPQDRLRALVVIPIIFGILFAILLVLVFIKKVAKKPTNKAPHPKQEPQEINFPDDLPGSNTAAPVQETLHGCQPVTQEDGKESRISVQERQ

| DC IL-12p70 secretion with LPS, EC50 | Binder |
| --- | --- |
| 0.1 µg/mL | B1 |
| 0.2 µg/mL | B2 |

target: T5, 4-1BB/Ig; assay: ELISA, 4-1BB/Ig coated, antibody 1 µg/ml
T5 construct: also called CD137
Description: as §1

| CD40 specific signal over the signal for this molecule | Binder |
| --- | --- |
| ≥ 100 fold | B1 |
| ≥ 100 fold | B2 |
| ≥ 100 fold | B3 |

target: T6, human CD40-IgG1 Fc fusion protein (human, UniProt P25942 21-193); assay: SPR BIAcore 3000, CD40-Ig immobilised, antibody injected
T6 construct: extracellular domain; also called CD40-Ig fusion protein; CD40-IgG fusion protein; not shown: human IgG1 Fc
T6 sequence (P25942 21-193): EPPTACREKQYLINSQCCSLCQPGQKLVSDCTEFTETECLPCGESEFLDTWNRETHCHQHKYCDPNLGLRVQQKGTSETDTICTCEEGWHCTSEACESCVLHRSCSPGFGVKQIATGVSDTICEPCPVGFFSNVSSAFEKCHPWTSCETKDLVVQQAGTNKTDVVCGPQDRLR

| Kd | koff | kon | Binder |
| --- | --- | --- | --- |
| 0.279 nM | 0.000155 s⁻¹ | 955000 M⁻¹ s⁻¹ | B1 |
| 0.0395 nM | 3.31e-05 s⁻¹ | 1.12e+06 M⁻¹ s⁻¹ | B2 |
| 0.00223 nM | 4.48e-07 s⁻¹ | 222000 M⁻¹ s⁻¹ | B3 |

target: T1, rat CD40 on blood cells; assay: FACS, whole blood

| binding result | Binder |
| --- | --- |
| no binding | B1 |
| no binding | B2 |
| no binding | B3 |

target: T7, mouse CD40 on blood cells (mouse, UniProt P27512 20-289); assay: FACS, whole blood
T7 construct: whole, on cells; also called mouse blood
T7 sequence (P27512 20-289): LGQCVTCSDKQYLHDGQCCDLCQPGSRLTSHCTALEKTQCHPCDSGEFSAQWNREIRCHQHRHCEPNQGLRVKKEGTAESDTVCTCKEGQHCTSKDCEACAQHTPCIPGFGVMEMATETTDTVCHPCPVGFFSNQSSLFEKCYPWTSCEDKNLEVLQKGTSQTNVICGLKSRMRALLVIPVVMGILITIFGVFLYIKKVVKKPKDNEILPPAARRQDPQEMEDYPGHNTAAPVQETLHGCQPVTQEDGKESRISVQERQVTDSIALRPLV

| binding result | Binder |
| --- | --- |
| no binding | B1 |
| no binding | B2 |
| no binding | B3 |

target: T2, dog CD40 on blood cells; assay: FACS, whole blood

| binding result | Binder |
| --- | --- |
| no binding | B1 |
| no binding | B2 |
| no binding | B3 |

target: T4, human CD40 on cells; assay: cell-based or functional assay; remark: another data set of the same source

| Allo DC/T IFNγ secretion, EC50 | Binder |
| --- | --- |
| 0.3 µg/mL | B1 |
| 0.1 µg/mL | B2 |

target: RANK/Ig; assay: ELISA, RANK/Ig coated, antibody 1 µg/ml
Sequence (Q9Y6Q6 whole entry): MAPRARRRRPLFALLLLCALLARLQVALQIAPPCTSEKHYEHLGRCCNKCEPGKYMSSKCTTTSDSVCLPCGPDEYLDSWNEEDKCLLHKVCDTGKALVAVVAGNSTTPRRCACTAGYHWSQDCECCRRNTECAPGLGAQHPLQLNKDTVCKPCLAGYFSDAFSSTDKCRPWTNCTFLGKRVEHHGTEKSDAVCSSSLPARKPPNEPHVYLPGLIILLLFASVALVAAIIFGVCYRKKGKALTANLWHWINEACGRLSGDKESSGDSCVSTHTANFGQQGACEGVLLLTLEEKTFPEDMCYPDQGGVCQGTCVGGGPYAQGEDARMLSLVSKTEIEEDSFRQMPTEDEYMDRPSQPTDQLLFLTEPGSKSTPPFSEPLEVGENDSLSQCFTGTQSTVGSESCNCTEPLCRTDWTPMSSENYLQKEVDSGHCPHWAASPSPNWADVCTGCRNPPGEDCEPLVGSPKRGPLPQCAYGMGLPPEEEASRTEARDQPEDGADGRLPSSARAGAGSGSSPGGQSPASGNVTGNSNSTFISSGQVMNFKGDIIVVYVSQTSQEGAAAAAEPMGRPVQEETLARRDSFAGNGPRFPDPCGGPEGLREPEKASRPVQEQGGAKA
Description: as §1

| CD40 specific signal over the signal for this molecule | Binder |
| --- | --- |
| ≥ 100 fold | B1 |
| ≥ 100 fold | B2 |
| ≥ 100 fold | B3 |

target: T4, human CD40 on cells; assay: cell-based or functional assay; remark: another data set of the same source

| DC B7-1 (CD80), fold increase in median intensity at 1 µg/ml, 72 h | DC B7-2 (CD86), fold increase in median intensity at 1 µg/ml, 72 h | DC CD83, fold increase in median intensity at 1 µg/ml, 72 h | DC ICAM (CD54), fold increase in median intensity at 1 µg/ml, 72 h | DC MHC Class II, fold increase in median intensity at 1 µg/ml, 72 h | Binder |
| --- | --- | --- | --- | --- | --- |
| 1.4 fold | 16.3 fold | 12 fold | 1.6 fold | 2.3 fold | B1 |
| 1.8 fold | 23.7 fold | 15.2 fold | 1.5 fold | 4.4 fold | B2 |

target: T4, human CD40 on cells; assay: cell-based or functional assay; remark: another data set of the same source

| B cell B7-1 (CD80), fold increase in median intensity at 1 µg/ml | B cell B7-2 (CD86), fold increase in median intensity at 1 µg/ml | B cell CD23, fold increase in median intensity at 1 µg/ml | B cell ICAM (CD54), fold increase in median intensity at 1 µg/ml | B cell MHC Class II, fold increase in median intensity at 1 µg/ml | Binder |
| --- | --- | --- | --- | --- | --- |
| 1.2 fold | 1 fold | 1.3 fold | 1.1 fold | 1.4 fold | B1 |
| 1.7 fold | 1.2 fold | 5.6 fold | 1.3 fold | 3.2 fold | B2 |

target: T8, TNFR-1/Ig; assay: ELISA, TNFR-1/Ig coated, antibody 1 µg/ml
T8 construct: also called Tumor Necrosis Factor Receptor-1
T8 sequence (P19438 whole entry): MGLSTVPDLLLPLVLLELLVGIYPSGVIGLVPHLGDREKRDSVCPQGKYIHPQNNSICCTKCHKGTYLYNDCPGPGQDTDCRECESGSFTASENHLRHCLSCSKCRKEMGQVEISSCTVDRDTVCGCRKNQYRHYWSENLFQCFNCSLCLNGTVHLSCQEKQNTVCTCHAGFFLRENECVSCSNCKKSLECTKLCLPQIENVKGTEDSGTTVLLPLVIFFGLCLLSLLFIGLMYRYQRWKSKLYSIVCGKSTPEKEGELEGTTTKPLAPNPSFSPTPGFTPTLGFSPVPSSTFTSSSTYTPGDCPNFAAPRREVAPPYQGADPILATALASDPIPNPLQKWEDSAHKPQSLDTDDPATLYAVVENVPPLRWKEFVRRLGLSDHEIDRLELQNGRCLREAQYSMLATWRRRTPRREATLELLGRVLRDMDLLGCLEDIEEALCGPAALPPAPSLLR
Description: as §1

| CD40 specific signal over the signal for this molecule | Binder |
| --- | --- |
| ≥ 100 fold | B1 |
| ≥ 100 fold | B2 |
| ≥ 100 fold | B3 |
